The values that follow come from publication PMC4402543 (Nucleic Acids Research, 2015).

In the assay the target is full-length His-PCAF fusion protein (human, UniProt Q92831 1-832). Kind of assay: pull-down.
Chain of full-length His-PCAF fusion protein (Q92831 whole entry, the tested form may be a part): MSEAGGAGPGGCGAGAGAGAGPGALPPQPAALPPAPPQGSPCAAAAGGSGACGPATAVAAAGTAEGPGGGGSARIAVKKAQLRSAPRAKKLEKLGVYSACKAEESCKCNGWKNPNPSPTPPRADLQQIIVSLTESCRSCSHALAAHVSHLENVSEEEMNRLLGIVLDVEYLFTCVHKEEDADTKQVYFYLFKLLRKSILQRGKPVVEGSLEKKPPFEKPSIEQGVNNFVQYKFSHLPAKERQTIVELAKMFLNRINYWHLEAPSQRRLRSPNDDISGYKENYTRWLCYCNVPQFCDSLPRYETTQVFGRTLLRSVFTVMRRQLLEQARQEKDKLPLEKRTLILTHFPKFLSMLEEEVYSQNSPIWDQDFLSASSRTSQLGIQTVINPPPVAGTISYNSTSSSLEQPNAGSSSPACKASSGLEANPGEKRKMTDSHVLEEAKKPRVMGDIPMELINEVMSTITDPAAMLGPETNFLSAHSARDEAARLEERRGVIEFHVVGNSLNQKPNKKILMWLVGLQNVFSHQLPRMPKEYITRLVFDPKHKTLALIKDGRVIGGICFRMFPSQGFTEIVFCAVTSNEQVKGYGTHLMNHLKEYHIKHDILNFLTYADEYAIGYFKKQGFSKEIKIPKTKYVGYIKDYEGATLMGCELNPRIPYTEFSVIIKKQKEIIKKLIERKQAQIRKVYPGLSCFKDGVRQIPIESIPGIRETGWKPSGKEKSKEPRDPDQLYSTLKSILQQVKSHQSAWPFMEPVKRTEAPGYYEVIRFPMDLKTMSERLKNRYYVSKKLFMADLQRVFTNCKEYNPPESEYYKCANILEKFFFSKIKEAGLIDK

B1: GST-EZH2 SET domain (610-746) (domain or fragment)
chain: not shown
As for B1, the binding result is recorded as “binds”.

B2: GST-EZH2 N-terminal domain (1-522) (domain or fragment)
chain: MGQTGKKSEKGPVCWRKRVKSEYMRLRQLKRFRRADEVKSMFSSNRQKILERTEILNQEWKQRRIQPVHILTSVSSLRGTRECSVTSDLDFPTQVIPLKTLNAVASVPIMYSWSPLQQNFMVEDETVLHNIPYMGDEVLDQDGTFIEELIKNYDGKVHGDRECGFINDEIFVELVNALGQYNDDDDDDDGDDPEEREEKQKDLEDHRDDKESRPPRKFPSDKIFEAISSMFPDKGTAEELKEKYKELTEQQLPGALPPECTPNIDGPNAKSVQREQSLHSFHTLFCRRCFKYDCFLHPFHATPNTYKRKNTETALDNKPCGPQCYQHLEGAKEFAAALTAERIKTPPKRPGGRRRGRLPNNSSRPSTPTINVLESKDTDSDREAGTETGGENNDKEEEEKKDETSSSSEANSRCQTPIKMKPNIEPPENVEWSGAEASMFRVLIGTYYDNFCAIARLIGTKTCRQVYEFRVKESSIIAPAPAEDVDTPPRKKKRKHRLWAAHCRKIQLKKDGSSNHVYNYQP
Turning to B2, the binding result was “binds”.
